Data reported in PMC3506661.

Molecular target: BAK (UniProt Q16611)
Assay: biotinylated BH3 peptide pull-down from lysate
Settings: reference: wild type, okadaic acid then UV; sites S117

binding against the reference: gained
Substance: BAK (from UniProt Q16611) S117A, okadaic acid then UV
